Assay results as given in paper PMC2132682.

Target: GST-NRX (cytoplasmic domain of Neurexin) (Drosophila) (UniProt Q94887)
Assay: pull-down

Sequence of UniProt Q94887 (Q94887 1239-1284): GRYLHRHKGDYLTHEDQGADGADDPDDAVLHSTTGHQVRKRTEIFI

32P-labeled Coracle (cDNA3 isoform, recombinant) (natural protein)
% relative binding: 100%

unlabeled Coracle (cDNA3 isoform, recombinant) (natural protein)
% relative binding of 32P-COR to NRX with the competitor: 36.6%
